The chains are these.
T1: BMPR2 (BMP receptor, in mouse fibroblasts and mouse mammary cells) (mouse, UniProt O35607 27-1038)
T1 construct: whole, on cells; For the co-IP it came from cell lysate; also called BMP Type II receptor
T1 sequence (looked up): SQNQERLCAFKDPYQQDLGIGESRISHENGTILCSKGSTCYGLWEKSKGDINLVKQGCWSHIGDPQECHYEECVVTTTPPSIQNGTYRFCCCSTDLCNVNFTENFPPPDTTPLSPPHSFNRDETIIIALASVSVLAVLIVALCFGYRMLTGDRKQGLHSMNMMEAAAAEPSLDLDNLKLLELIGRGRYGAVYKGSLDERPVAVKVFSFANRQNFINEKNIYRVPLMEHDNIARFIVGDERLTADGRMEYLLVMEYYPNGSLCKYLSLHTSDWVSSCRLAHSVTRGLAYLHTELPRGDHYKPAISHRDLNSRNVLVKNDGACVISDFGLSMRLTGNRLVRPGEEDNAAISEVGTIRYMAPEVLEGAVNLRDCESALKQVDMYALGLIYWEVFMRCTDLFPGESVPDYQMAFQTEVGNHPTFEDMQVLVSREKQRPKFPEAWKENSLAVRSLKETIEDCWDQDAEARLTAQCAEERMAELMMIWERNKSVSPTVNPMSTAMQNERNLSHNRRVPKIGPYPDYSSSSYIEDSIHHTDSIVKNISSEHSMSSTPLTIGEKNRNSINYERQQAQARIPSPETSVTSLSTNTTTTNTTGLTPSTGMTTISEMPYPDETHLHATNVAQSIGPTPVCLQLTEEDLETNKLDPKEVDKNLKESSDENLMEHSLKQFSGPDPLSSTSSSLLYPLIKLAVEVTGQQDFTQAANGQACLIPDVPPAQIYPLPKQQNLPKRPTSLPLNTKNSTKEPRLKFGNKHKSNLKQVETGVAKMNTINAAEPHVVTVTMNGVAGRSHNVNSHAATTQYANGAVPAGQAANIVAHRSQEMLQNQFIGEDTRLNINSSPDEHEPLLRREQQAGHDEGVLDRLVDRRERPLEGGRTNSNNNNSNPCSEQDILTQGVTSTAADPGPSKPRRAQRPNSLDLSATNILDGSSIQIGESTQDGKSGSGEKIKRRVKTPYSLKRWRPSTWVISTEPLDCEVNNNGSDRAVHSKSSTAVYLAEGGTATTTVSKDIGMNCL

T2: BMPR2 on human breast cancer cells (PDX tumor cells, MDA-MB-231) (human, UniProt Q13873 27-1038)
T2 construct: whole, on cells
T2 sequence (looked up): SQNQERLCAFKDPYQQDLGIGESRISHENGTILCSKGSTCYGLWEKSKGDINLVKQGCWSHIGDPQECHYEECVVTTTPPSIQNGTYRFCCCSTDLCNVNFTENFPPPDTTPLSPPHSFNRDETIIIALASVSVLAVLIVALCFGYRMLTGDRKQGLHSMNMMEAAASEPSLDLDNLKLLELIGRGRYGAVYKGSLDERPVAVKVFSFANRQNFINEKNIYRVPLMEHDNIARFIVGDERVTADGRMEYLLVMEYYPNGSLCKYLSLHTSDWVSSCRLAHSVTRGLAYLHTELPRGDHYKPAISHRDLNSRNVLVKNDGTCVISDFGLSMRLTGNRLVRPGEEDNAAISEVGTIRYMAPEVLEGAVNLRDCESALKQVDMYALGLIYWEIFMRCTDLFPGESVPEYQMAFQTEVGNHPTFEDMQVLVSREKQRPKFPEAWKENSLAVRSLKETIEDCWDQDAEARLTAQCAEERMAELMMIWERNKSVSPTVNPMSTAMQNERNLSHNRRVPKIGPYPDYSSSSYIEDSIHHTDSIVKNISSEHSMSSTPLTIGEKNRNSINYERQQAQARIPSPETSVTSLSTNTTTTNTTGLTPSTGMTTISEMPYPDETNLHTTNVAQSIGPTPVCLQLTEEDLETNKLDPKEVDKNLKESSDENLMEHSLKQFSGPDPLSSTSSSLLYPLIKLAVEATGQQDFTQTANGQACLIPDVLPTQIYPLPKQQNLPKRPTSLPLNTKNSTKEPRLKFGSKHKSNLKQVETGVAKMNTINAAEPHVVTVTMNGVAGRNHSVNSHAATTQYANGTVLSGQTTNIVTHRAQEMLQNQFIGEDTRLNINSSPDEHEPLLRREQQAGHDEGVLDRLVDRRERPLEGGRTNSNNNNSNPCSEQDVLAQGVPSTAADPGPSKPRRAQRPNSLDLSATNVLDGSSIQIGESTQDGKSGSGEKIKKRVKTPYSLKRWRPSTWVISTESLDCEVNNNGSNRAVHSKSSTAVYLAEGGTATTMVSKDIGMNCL

T3: 1189 IMM (human LEFTY1-Rabbit Fc fusion protein) (human)
T3 construct: also called Lefty IMM; Lefty Imm
T3 chain: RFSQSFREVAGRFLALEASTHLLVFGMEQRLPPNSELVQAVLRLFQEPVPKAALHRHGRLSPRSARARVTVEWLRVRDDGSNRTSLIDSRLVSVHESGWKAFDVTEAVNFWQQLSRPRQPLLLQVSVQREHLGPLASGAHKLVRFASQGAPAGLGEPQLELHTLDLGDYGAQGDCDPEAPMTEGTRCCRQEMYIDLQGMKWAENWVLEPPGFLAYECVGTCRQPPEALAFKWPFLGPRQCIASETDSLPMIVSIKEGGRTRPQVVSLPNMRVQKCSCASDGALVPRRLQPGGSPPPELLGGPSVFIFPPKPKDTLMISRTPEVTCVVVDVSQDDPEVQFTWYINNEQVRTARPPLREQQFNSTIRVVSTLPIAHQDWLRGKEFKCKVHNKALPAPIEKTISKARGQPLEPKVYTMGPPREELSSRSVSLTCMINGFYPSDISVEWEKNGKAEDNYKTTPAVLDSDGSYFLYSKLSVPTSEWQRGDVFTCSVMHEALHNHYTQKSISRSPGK

T4: 1189 SCR1 (human LEFTY1-human Fc fusion protein) (human)
T4 construct: also called Lefty SCR; Lefty Scr
T4 chain: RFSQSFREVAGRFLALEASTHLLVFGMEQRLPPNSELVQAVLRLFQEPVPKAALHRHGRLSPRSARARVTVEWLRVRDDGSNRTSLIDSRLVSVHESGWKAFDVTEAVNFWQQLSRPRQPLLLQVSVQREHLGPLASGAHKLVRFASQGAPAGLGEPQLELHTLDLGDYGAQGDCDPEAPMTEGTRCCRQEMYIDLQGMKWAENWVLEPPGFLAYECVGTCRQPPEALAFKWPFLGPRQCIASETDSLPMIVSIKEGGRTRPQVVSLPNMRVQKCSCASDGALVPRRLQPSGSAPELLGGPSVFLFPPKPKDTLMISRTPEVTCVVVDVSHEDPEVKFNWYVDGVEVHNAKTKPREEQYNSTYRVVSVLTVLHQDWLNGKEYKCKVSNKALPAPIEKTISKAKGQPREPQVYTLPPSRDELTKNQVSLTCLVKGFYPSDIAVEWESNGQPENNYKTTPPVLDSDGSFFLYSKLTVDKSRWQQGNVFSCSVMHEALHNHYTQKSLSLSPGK

T5: recombinant human LEFTY2 protein (R&D Systems, catalog number 746-LF-025) (human, UniProt O00292 78-366, limits assumed)
T5 construct: also called Lefty R&D; rhLefty2 protein
T5 sequence (looked up): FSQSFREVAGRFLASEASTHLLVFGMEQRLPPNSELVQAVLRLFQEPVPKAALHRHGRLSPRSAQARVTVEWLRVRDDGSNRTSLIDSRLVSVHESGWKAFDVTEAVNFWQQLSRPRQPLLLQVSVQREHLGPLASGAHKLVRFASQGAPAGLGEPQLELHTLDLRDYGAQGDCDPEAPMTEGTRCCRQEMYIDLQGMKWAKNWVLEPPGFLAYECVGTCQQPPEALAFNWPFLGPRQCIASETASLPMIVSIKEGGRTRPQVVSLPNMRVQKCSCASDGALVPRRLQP

B1: LEFTY1 (recombinant mouse Lefty1 protein, R&D Systems, catalog number 994-LF) (ligand, UniProt Q64280 78-368, looked up)
chain: FSQNLREVAGRFLVSETSTHLLVFGMEQRLPPNSELVQAVLRLFQEPVPRTALRRQKRLSPHSARARVTIEWLRFRDDGSNRTALIDSRLVSIHESGWKAFDVTEAVNFWQQLSRPRQPLLLQVSVQREHLGPGTWSSHKLVRFAAQGTPDGKGQGEPQLELHTLDLKDYGAQGNCDPEAPVTEGTRCCRQEMYLDLQGMKWAENWILEPPGFLTYECVGSCLQLPESLTSRWPFLGPRQCVASEMTSLPMIVSVKEGGRTRPQVVSLPNMRVQTCSCASDGALIPRRLQP
notes: Added to cells at 200 ng/ml (co-IP, SMAD assays)
B2: BMP7 in human breast cancer PDX cells (ligand, UniProt P18075 293-431, looked up)
chain: STGSKQRSQNRSKTPKNQEALRMANVAENSSSDQRQACKKHELYVSFRDLGWQDWIIAPEGYAAYYCEGECAFPLNSYMNATNHAIVQTLVHFINPETVPKPCCAPTQLNAISVLYFDDSSNVILKKYRNMVVRACGCH
B3: BMP7 (R&D Systems 5666-BP) (ligand, mouse, UniProt P23359 292-430, looked up)
chain: B2 chain with S4G, N25S, E97D
B4: SCBT anti-lefty antibody (Santa Cruz Biotechnology, catalog number sc-365845, mAb D6) (antibody, mouse IgG1, kappa)
heavy: QVQLQQSGAELVRPGASVKLSCKALGYTFADYEMHWVRQTPVHGLEWTGSIHPGSGGTAYDQRFKGKATLTADKSSSTAYMELSSLTSEDSAVYYCTFYDLDYWGQGTTLTVSSAKTTPPSVYPLAPGSAAQTNSMVTLGCLVKGYFPEPVTVTWNSGSLSSGVHTFPAVLQSDLYTLSSSVTVPSSTWPSETVTCNVAHPASSTKVDKKIVPRDCGCKPCICTVPEVSSVFIFPPKPKDVLTITLTPKVTCVVVDISKDDPEVQFSWFVDDVEVHTAQTQPREEQFNSTFRSVSELPIMHQDWLNGKEFKCRVNSAAFPAPIEKTISKTKGRPKAPQVYTIPPPKEQMAKDKVSLTCMITDFFPEDITVEWQWNGQPAENYKNTQPIMDTDGSYFVYSKLNVQKSNWEAGNTFTCSVLHEGLHNHHTEKSLSHSPGK
light: DILMTQAAPSISVTPGESVSISCRSSESLLHSNGNTYLYWFLQRPGQSPQLLIYRKSNLASGVPDRFSGSGSGTAFTLRISRVEAEDVGVYYCMQQLEYPLTFGGGTKLELKRADAAPTVSIFPPSSEQLTSGGASVVCFLNNFYPKDINVKWKIDGSERQNGVLNSWTDQDSKDSTYSMSSTLTLTKDEYERHNSYTCEATHKTSTSPIVKSFNRNEC
notes: The ELISA protocol prints the catalog number as sc-36584, the proliferation protocols as sc-365845; also called SCBT antibody; SCBT Ab

Substitutions are numbered along the chain they refer to.

For experiment [1], the target named is B4. Nature of the experiment: competition ELISA: the peptide is added to the antibody on coated LEFTY proteins. In general terms: In an ELISA, binding on a coated surface is turned into a signal by an enzyme label.
For another experiment, the target named is T6, LRP6 (UniProt O88572 20-1613, limits assumed).
T6 construct: whole, on cells
T6 sequence (O88572 20-1613 limits assumed): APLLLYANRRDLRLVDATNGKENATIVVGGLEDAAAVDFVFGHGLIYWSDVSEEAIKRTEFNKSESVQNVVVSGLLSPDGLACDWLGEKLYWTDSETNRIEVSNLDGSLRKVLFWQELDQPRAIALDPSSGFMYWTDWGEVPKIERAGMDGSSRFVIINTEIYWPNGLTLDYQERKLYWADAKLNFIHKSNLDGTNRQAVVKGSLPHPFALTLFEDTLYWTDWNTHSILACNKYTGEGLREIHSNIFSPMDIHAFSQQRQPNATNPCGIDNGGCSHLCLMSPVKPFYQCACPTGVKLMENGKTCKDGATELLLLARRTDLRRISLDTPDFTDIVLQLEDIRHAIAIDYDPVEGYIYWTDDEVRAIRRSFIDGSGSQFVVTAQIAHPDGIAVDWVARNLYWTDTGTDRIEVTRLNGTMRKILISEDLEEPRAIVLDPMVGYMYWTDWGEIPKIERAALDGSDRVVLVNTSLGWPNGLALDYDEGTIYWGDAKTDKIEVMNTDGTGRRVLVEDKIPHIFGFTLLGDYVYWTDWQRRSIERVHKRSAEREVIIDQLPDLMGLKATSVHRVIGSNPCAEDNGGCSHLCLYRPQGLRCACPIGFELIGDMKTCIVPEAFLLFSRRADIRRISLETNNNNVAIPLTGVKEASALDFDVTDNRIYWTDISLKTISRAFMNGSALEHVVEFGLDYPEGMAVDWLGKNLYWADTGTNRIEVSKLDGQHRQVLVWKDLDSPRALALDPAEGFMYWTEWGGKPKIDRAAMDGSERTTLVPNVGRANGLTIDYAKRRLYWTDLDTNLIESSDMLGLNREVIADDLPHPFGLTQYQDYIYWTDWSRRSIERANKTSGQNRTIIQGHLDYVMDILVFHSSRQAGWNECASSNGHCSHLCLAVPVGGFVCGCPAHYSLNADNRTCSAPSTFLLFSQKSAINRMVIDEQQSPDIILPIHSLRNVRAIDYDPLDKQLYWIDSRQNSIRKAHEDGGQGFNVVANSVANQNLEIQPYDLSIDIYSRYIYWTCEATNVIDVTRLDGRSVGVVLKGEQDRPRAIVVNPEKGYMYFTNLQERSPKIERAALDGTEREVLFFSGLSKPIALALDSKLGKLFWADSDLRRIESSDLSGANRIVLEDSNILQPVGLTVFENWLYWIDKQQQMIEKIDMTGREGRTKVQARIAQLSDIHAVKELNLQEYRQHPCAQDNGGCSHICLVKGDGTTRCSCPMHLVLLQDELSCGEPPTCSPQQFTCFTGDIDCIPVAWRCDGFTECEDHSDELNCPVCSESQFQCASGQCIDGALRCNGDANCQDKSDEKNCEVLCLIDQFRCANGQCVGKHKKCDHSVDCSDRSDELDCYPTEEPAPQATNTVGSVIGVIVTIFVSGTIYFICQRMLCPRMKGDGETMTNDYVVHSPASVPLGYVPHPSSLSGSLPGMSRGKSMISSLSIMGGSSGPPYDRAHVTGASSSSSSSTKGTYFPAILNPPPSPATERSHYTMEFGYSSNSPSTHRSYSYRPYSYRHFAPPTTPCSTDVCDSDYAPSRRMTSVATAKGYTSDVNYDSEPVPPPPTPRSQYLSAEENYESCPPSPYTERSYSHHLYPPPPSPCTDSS
Nature of the experiment: proximity ligation assay in fibroblasts.

The target of experiment [2] is T1, BMPR2 (BMP receptor, in mouse …). The experiment is described as follows: proximity ligation assay in fibroblasts.
The target in experiment [3] is T2, BMPR2 on human breast cancer cells (PDX …). The experiment is described as follows: proximity ligation assay on sorted PDX cells.
The target of experiment [4] is T3, 1189 IMM (human LEFTY1-Rabbit Fc fusion …). The experiment is described as follows: ELISA, plate coated with 5 ug/ml protein, 5 ug/ml primary antibody, absorbance at 450 nm.
Experiment [5] deals with T4, 1189 SCR1 (human LEFTY1-human Fc fusion …). The experiment is described as above.
The target of experiment [6] is T5, recombinant human LEFTY2 protein (R&D …). Described as above.

As for PMIVSVKEGGRTRPQVVSLPNMRVQT [Lefty1 peptide PMIVSVKEGGRTRPQVVSLPNMRVQT], the binding result in experiment [1] was “binds”.

As to B1, the binding result with LRP6 is listed as “no binding”; in experiment [2], “binds”.

Turning to B2, the binding result in experiment [3] is given as “binds”.

On to B3, for which the binding result in experiment [2] was “binds”.

As for B4, the binding result in experiment [4], in experiment [5] and in experiment [6] was “binds” throughout.
